Data as given in the RNAGym collection of RNA variant scans (doi:10.1093/molbev/msab373).

B1: Azoarcus group I ribozyme (parent)
chain: GUGCCUUGCGCCGGGAAACCACGCAAGGGAUGGUGUCAAAUUCGGCGAAACCUAAGCGCCCGCCCGGGCGUAUGGCAACGCCGAGCCAAGCUUCGGCGCCUGCGCCGAUGAAGGUGUAGAGACUAGACGGCACCCACCUAAGGCAAACGCUAUGGUGAAGGCAUAGUCCAGGGAGUGGCGAAAGUCACACAAACCGG

Variants of: B1
Assay: reverse-splicing fitness (ratio to wild type); higher = more active; in vitro selection; Mg2+ level not given
In short: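 An in vitro group I ribozyme library with randomized positions was T7-transcribed and gel-purified. In triplicate, 10 pmol RNA in EPPS pH 7.5 was reacted with 50 pmoles of a 30-nt RNA substrate for 1 h at 37 °C across several added MgCl2 levels (1–48 mM), then stopped with EDTA. Products were reverse transcribed from a substrate-complementary primer, PCR-amplified and sequenced (HiSeq 4000). Fitness is a variant's read proportion after selection over that before, normalised to wild type.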

In order of rising reverse-splicing fitness:
1. C82U A111C C150G U176G  0.00363
2. C82U A111G A120C A145C C150A U176G  0.0038
3. C82U A111G A120C A145C C150A C169U U176G  0.00393
4. C82U A111G A120C A145C C150G C169G U176G  0.00397
5. C82U A111G A120C A145C C150G C169G U176C  0.004
6. C82U A111G A120C A145C C150G C169A U176G  0.00425
7. C82U A111G A120C A145C C150A C169A U176G  0.00444
8. C82U A111G A120C A145C C150A C169G U176G  0.00451
9. C82U A111C C150G C169G U176C  0.00488
10. C82U A111C C150G C169G U176G  0.00523
11. C82U A111G A120C A145C C150A C169A U176C  0.00523
12. C82U A111G A120C A145C C150G C169A U176C  0.00573
13. C82U A111C C150G C169G U176A  0.00576
14. C82U A111C C150G C169U U176G  0.00577
15. C82U A111C C169A U176G  0.00617
16. C82U A111G A120C A145C C150G C169A U176A  0.00643
17. C82U A111C C150G C169G  0.00661
18. C82U A111C C150G C169A U176G  0.00672
19. C82U A111G A120C A145C C150G C169G  0.00679
20. C82U A111C C169U U176G  0.00681
21. C82U A111G A120C A145C C150A C169A  0.00689
22. C82U A111C C169G U176G  0.007
23. C82U A111C C150U C169U U176G  0.00713
24. C82U A111C C150U C169G  0.00731
25. C82U A111C C150U C169G U176G  0.00752
26. C82U A111G A120C A145C C150A C169G  0.00759
27. C82U A111G A120C A145C C150G C169A  0.0076
28. C82U A111G A120C A145C C150G C169G U176A  0.00761
29. C82U A111G A120C A145C C150A U176C  0.00767
30. C82U A111C C150A C169U U176G  0.00777
31. C82U A111C C150U C169A U176G  0.008
32. C82U A111C C150G U176A  0.00801
33. C82U A111G A120C A145C C150A  0.00803
34. C82U A111C C150G C169A  0.00807
35. C82U A111C C150A U176G  0.00812
36. C82U A111C C150G C169U U176A  0.00814
37. C82U A111C C150A C169G U176G  0.00835
38. C82U A111C C169G  0.00866
39. C82U A111C C150G C169A U176A  0.00878
40. C82U A111C C150G C169U  0.00902
41. C82U A111C C150U C169A  0.00914
42. C82U A111G A120C A145C C150A C169U  0.00924
43. C82U A111G A120C A145C C150G  0.00936
44. C82U A111G A120C A145C C150A U176A  0.00938
45. C82U A111C C150G C169A U176C  0.00957
46. C82U A111C C169A  0.00958
47. C82U A111G A120C A145C C150A C169G U176C  0.00993
48. C82U A111G A120C A145C C150A C169A U176A  0.0104
49. C82U A111G A120C A145C C150A C169U U176C  0.0104
50. C82U A111C C150A C169U  0.0106
51. C82U A111C C150G C169U U176C  0.0111
52. C82U A111C C150U C169U  0.0116
53. C82U A111C C150U C169G U176A  0.0119
54. C82U A111C C169U  0.0123
55. C82U A111C C150U C169A U176A  0.0124
56. C82U A111C C150U U176G  0.0125
57. C82U A111C C150U C169A U176C  0.0134
58. C82U A111C C150A U176A  0.0143
59. C82U A111C C150U C169U U176C  0.0145
60. C82U A111C C169U U176C  0.0146
61. C82U A111G A120C A145C C150A C169U U176A  0.0146
62. C82U A111C C150G U176C  0.0147
63. C82U A111C C169A U176A  0.016
64. C82U A111C C150U C169G U176C  0.0161
65. C82U A111C C150G  0.0163
66. C82U A111C C150A C169U U176A  0.0166
67. C82U A111C C150A C169U U176C  0.0169
68. C82U A111C C169U U176A  0.0179
69. C82U A111C C169G U176A  0.0181
70. C82U A111C C150U C169U U176A  0.0192
71. C82U A111G A120C A145C C150A C169G U176A  0.0198
72. C82U A111C U176G  0.02
73. C82U A111C C169G U176C  0.024
74. C82U A111C C169A U176C  0.0243
75. C82U A111C C150A U176C  0.0276
76. C82U A111C C150U U176A  0.0385
77. C82U A111G A120C A145C  0.0519
78. C82U A111G A120C  0.0555
79. C82U A111C C150U U176C  0.0667
80. C82U A111C U176A  0.0847
81. C82U A111C U176C  0.104
82. C82U A111C C150U  0.123
83. C82U A111G  0.477
